{"source": "the nanobody polyreactivity screen of Harvey et al. (2022)", "data": [{"experiment": "yeast display, Sf9 membrane polyspecificity reagent, FACS + sequencing; frameworks hold sequencing errors", "procedure,_shortened": "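Synthetic nanobody libraries on Saccharomyces cerevisiae BJ5465 were galactose-induced for 36–48 hours, stained 1 hour at 4 °C with 10% biotinylated, detergent-solubilized Sf9 membrane reagent and enriched on streptavidin microbeads. FACS then separated cells into low and high (top ~1%) gates by anti-HA (expression) and streptavidin (reagent binding) fluorescence. Genes were colony-PCR amplified, MiSeq 2 × 250 sequenced and CDR-length filtered. A clone's polyreactivity label is that of its gate of origin.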", "values": [{"sequence": "QVQLVESGGGLVQAGGSLRLSCAASGLTFYGNAMGWYRQAPGKERELVAAISSSGGTTYYADSVKGRFTISRDNAKNTVYLQMNSLKPEDTAVYYYWGQGTQVTVSS", "polyreactivity (PSR sort gate)": "low polyreactivity"}, {"sequence": "QVQLVESGGGLVQAGGSLRLSCADSGLTFGSNGMGWYRQAPGKERELVAAISRGGSTSYAVSVKGRFTISRDNAKNTVYLQMNSLKPEDTAVYYCAARSYRYSYRYRAFDYWGQGSQVTVSS", "polyreactivity (PSR sort gate)": "high polyreactivity"}, {"sequence": "QVQLVESGGGLVQAGGSLRLSCAASGITFSRNAMGWYRQAPGKERELVATITSGGSTNYADSVKGRFTISRDNAQNTVYLQMNSLKPEDTAVYYCNAVWNTFISGRSYDYWGQGTQVTVSS", "polyreactivity (PSR sort gate)": "low polyreactivity"}, {"sequence": "QVQLVESGGGLVQAGGSLRLSCAASGFIFYRYAMGWYRQAPGKESELVAAISRSGGSKYYADSVKGRFTISRDLANNTVYLQLNSLKPEDTAVYYCATPVHRKLYLVNYWGQGTQVTVSS", "polyreactivity (PSR sort gate)": "low polyreactivity"}, {"sequence": "QVLLVESGGGLVQAGGSLRLSCAASGSTIRYYAMGWYRQAPGKERELVAAISWRGGSTYYADSVKGRFTISRDNAKYTVYLQMNSLKPEDTAVYYCAVEAVAYGFFHYDYWGQGTQVTVSS", "polyreactivity (PSR sort gate)": "high polyreactivity"}, {"sequence": "LVQLVESGGGLVQAGGSLRLSCAASGRIIPPNAMGWYRQAPGTERELVATITWGVGSTYYADSVKGRFTISRDNAKNTVYLQMNSLKPEDTAVYYCYARRFRPYGFYYWGQGTQVTVSS", "polyreactivity (PSR sort gate)": "high polyreactivity"}, {"sequence": "QVQLVESGGGFVQAGGSLRLSGAASGSIFYCNAMGWYRQAPGKDRELVAAISYSGGSTYYADSVKGRFTLSRDTAKNTVYLQMNSLKPEDTAVSDGAAGPITLRYLTIYYTFDYWGQGTQVTVSS", "polyreactivity (PSR sort gate)": "high polyreactivity"}, {"sequence": "QVQLVESGGGLVQAGGRLRLSCAASGSIFAGYVMGWYRQAPGKERELVAAISKSGGSTYYADSVKGRFTISRDNAKNTVSLQMNSLKPEDTAVYYSAKDHYYVDYDYWGQGTQVTVSS", "polyreactivity (PSR sort gate)": "high polyreactivity"}, {"sequence": "QVQLVESGGGLVQAGGSLRLSCAASGRTFGRYAMGWYRQAPGKERELVAAITRSGSSTYYADSVKGRFTISRDNAKNTVYLQMNSLKPEDTAVYYCAALYGPFYSTGEYWGQGTQVTVSS", "polyreactivity (PSR sort gate)": "high polyreactivity"}, {"sequence": "QVQLVESGGGLVQAGGSLRLSCAASGSTFTSYTMGWYRQAPGKERELVARNTRGGGSTYYADSVKGRFTISRDNAKNTVYLQMNSLKPEDTAVYYCAKQVVGRAYYSWGQGTQVTVSS", "polyreactivity (PSR sort gate)": "low polyreactivity"}, {"sequence": "QVQLVESGGGLVQAGGSLRLSCAASGRTYSYYAMGSYRQAPGKERELVAAITTSGGSTYYADSVKGRFTISRDNAKNTVYLQMNSLKPEDTAVYYCNALSSGVYLYDYWGQGTQVTVSS", "polyreactivity (PSR sort gate)": "high polyreactivity"}, {"sequence": "QVQLVESGGGLVQAGGTLRLSCAATGRIFARYAMGWYRQAPGKERELVAAITVSGDNTYYADSVKGRFTISRYNAKNTVYLQMNSLKPEDTAVYYCAVRAVLLFGFFEYDYWGQGTQVTVSS", "polyreactivity (PSR sort gate)": "low polyreactivity"}, {"sequence": "QVQLVESGGGLVQAGGSLRLSCAASVRIFGYYAMGWNRQAPGTERELVATINSVGSTNYADSVKGRFTISRDNAKNTVYLQMNSLKPEDTAVYYCATDSAYTFFTYRLWRHGYWGQGTQVTVSS", "polyreactivity (PSR sort gate)": "low polyreactivity"}, {"sequence": "QVQLVESGGGLVQAGGSLRLSCAASGITFRHYAMGWYRQAPGKEREMVARIRGGGVSTYYADSVKGRFTISRDNAKNTVYLQMNSLKPEDTAVYYCNAVFESWWGDYDYWGQGTQVTVSS", "polyreactivity (PSR sort gate)": "high polyreactivity"}, {"sequence": "QVQLVESGGGLVQAGGRLRLSCAASGSTLGYYTMGWYRQAPGKERELVAANTRSGGSTYYADSVKGRFTISRDNAKNTVYLQMNSLKPEDTAVYYCAAAWTRFRIYDYWGQVTQVTVSS", "polyreactivity (PSR sort gate)": "high polyreactivity"}, {"sequence": "QVQLVESGGGLVQAGGSLRLSCAASGRTLSWYAMGWYRQAPGKEREFVAAITSSGASTYYADSVKGRFTISRDNAKNTVYLQMNSLKPEDTAVYYCAAEAVYVSSWYDEYYYFRYDYWGQGTQVTVSS", "polyreactivity (PSR sort gate)": "high polyreactivity"}, {"sequence": "QVQLVESGGGLVQAGGSLRLSCAASGLIFSYYAMGWYRQAPGKERELVAAISRGGSTNYADSVKGRFTISRDNAKNTVNLQMNSLKPEDTAVYYFAAGRFAYHDDYWGQGTQVTVSS", "polyreactivity (PSR sort gate)": "high polyreactivity"}, {"sequence": "QVLLQESGGGLVQAGGSLRLSCAASGSIFLFYTMGWYRQAPVKEREFVAGITLGTTTYNADSVKGRFTISRDNVKNTVYLQMNSLKPEDTAVYYFAVAVGHYTEFWYWGQGTQVTMSS", "polyreactivity (PSR sort gate)": "high polyreactivity"}, {"sequence": "QVQLVESGGGLVQAGGSLRLSCAASGSIFFRNAMGWYRQAPGKERELVATIDWSGGYTDYADTVKGRFTISRDNAKNTVYLQMNSLKPEETAVYYCATGRYDRYYNFWYYYWGQGPQVTVSS", "polyreactivity (PSR sort gate)": "high polyreactivity"}, {"sequence": "QVQLVESVGGLVQAGGSLRLSCAASGFTFHAYAMGWYRQAPGKERELVAVITRGGSTYYADSVKRRFTISLDNAKNTVYLQMKSLKPEDTAVYYCAAVRTKDWRGPEMDYWGQGTQVTVSS", "polyreactivity (PSR sort gate)": "high polyreactivity"}, {"sequence": "QVQLVESGGGLVQAGGTLRLSCAASGSTFGRYAMGWYRQAPGKERELVAAITSDTGNTNYADSVKGRFTISRDNAKNTVYLQMNSLKPEDTAVYYCAARLYARRVYDYWGQGTQVTVSS", "polyreactivity (PSR sort gate)": "low polyreactivity"}]}]}
